Laboratory results taken from paper PMC6965647.

Biological target: heat shock protein 90 (human (endogenous in brain tissue)) (UniProt P07900)
Experiment: native gel or EMSA; human brain homogenates (AD and ND) on 4–10% native gradient gel at 4 °C, immunoblot

Substance: heat shock protein 90 (from UniProt P07900 1-732) (natural protein)
- stoichiometry N: 2
